The record followed here is patent publication US7186408 (CAMBRIDGE UNIVERSITY TECHNICAL SERVICES, dated 2007).

In experiment [1] the target is vCD30-Fc (EV Hampstead vCD30 fused to the Fc fragment of human IgG1, baculovirus AcCD30-Fc, purified from Hi5 … (ectromelia virus, strain Hampstead; …).
In the next experiment the target is T1, Human CD30 on K562 cells (human, UniProt P28908 19-595).
T1 construct: also called cell surface CD30; cellular receptors
T1 sequence: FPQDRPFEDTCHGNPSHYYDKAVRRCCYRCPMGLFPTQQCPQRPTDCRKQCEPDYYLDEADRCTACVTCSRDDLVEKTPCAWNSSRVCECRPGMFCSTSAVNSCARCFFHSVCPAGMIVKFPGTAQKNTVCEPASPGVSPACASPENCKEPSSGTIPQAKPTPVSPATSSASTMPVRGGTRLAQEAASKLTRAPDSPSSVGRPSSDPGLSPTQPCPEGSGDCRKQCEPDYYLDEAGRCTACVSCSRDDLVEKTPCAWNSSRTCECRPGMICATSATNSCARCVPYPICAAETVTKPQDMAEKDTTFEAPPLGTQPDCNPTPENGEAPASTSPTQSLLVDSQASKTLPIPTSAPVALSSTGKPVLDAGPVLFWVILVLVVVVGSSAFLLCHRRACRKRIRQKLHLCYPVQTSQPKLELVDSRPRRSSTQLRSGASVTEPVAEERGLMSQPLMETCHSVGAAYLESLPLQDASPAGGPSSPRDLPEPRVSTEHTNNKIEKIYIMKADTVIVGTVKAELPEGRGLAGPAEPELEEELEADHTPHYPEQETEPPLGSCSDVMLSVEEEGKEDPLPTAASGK
The experiment in a line: flow cytometry on K562 cells.

Experiment [2] has as its target T2, Recombinant mouse CD30-Fc (R&D Systems) (mouse, UniProt Q60846 19-281).
T2 construct: also called moCD30-Fc; not shown: Fc portion of the bought fusion protein
T2 sequence: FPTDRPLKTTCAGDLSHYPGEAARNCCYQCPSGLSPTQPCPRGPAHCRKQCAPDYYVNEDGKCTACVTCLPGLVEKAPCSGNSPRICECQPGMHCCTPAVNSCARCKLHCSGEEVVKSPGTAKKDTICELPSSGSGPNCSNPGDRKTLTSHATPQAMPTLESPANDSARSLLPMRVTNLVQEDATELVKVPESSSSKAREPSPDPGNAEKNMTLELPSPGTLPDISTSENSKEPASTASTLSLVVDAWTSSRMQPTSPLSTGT
The experiment is described as follows: Scatchard analysis (LIGAND), 2 ng mouse CD30 on protein A FlashPlate with increasing mouse 125I-CD30L.

B1: Recombinant mouse CD30L (soluble, 6x histidine-tagged, R&D Systems) (ligand, UniProt P32972 68-239, looked up)
chain: QKKDSTPNTTEKAPLKGGNCSEDLFCTLKSTPSKKSWAYLQVSKHLNNTKLSWNEDGTIHGLIYQDGNLIVQFPGLYFIVCQLQFLVQCSNHSVDLTLQLLINSKIKKQTLVTVCESGVQSKNIYQNLSQFLLHYLQVNSTISVRVDNFQYVDTNTFPLDNVLSVFLYSSSD
notes: also called 125I-CD30L; mouse 125I-CD30L
Turning to B1, the Kd in experiment [1] and in experiment [2] was 1 nM each time. In the experiment with Human CD30 on K562 cells, the binding result is given as “binds”.

A word on the Kd: it is the equilibrium constant for the complex coming apart.
